Laboratory results as given in article PMC12102759 (2025).

B1: AZIN2 peptide 1-16 (Antizyme inhibitor 2), 16-mer library wild type / NSP3 ADRP (ORF1ab Nsp3b ADRP, residues 1023-1192) (parent complex)
chain 1: MAGYLSESDFVMVEEG
chain 2: not shown
B2: PRDM14 peptide 196-211 (PR domain zinc finger protein 14), 16-mer library wild type / NSP3 SUD-M (ORF1ab Nsp3c SUD-M, residues 1356-1493) (parent complex)
chain 1: QFTEEDLHFVLYGVTP
chain 2: LPSIISNEKQEILGTVSWNLREMLAHAEETRKLMPVCVETKAIVSTIQRKYKGIKIQEGVVDYGARFYFYTSKTTVASLINTLNDLNETLVTMPLGYVTHGLNLEEAARYMRSLKVPATVSVSSPDAVTAYNGYLTSS

Variants of: B1
Experiment: bait immobilised on MaxiSorp plates (10 µg), library pre-cleared on GST, 2 h binding at 4 °C, five washes; one round per day, days 1-4; value from days 2 and 3

Going from chain 1 G16F to chain 1 G16H, the screen value rises from 0.000171 average fractional NGS count over selection days 2 and 3 (reads of this peptide / all reads for the bait, averaged over … to 0.000328 average fractional NGS count over selection days 2 and 3 (reads of this peptide / all reads for the bait, averaged over ….

Going from chain 1 E15D to chain 1 M12N, the screen value rises from 9.82e-05 average fractional NGS count over selection days 2 and 3 (reads of this peptide / all reads for the bait, averaged over … to 0.00321 average fractional NGS count over selection days 2 and 3 (reads of this peptide / all reads for the bait, averaged over ….

Compared with chain 1 E14P, chain 1 G16S is lower in screen value: 0.0011 average fractional NGS count over selection days 2 and 3 (reads of this peptide / all reads for the bait, averaged over … for the first, 0.000137 average fractional NGS count over selection days 2 and 3 (reads of this peptide / all reads for the bait, averaged over … for the second.

First: chain 1 E14Q
Second: chain 1 M12A
The screen value of the first is lower: 0.00039 average fractional NGS count over selection days 2 and 3 (reads of this peptide / all reads for the bait, averaged over … for the first, 0.00221 average fractional NGS count over selection days 2 and 3 (reads of this peptide / all reads for the bait, averaged over … for the second.

Going from chain 1 V13H to chain 1 V11E, the screen value falls from 0.00368 average fractional NGS count over selection days 2 and 3 (reads of this peptide / all reads for the bait, averaged over … to 0.000156 average fractional NGS count over selection days 2 and 3 (reads of this peptide / all reads for the bait, averaged over ….

First: chain 1 E14N
Second: chain 1 G3M
The screen value of the first is lower: 0.000346 average fractional NGS count over selection days 2 and 3 (reads of this peptide / all reads for the bait, averaged over … for the first, 0.000375 average fractional NGS count over selection days 2 and 3 (reads of this peptide / all reads for the bait, averaged over … for the second.

First: chain 1 G16E
Second: chain 1 G3Q
The screen value of the first is lower: 0.000344 average fractional NGS count over selection days 2 and 3 (reads of this peptide / all reads for the bait, averaged over … for the first, 0.000537 average fractional NGS count over selection days 2 and 3 (reads of this peptide / all reads for the bait, averaged over … for the second.

Going from chain 1 G3K to chain 1 G16A, the screen value rises from 0.00086 average fractional NGS count over selection days 2 and 3 (reads of this peptide / all reads for the bait, averaged over … to 0.00182 average fractional NGS count over selection days 2 and 3 (reads of this peptide / all reads for the bait, averaged over ….

First: chain 1 V13M
Second: chain 1 G3D
The screen value of the first is lower: 0.000618 average fractional NGS count over selection days 2 and 3 (reads of this peptide / all reads for the bait, averaged over … for the first, 0.00677 average fractional NGS count over selection days 2 and 3 (reads of this peptide / all reads for the bait, averaged over … for the second.

Compared with chain 1 E14S, chain 1 E15H is higher in screen value: 0.000258 average fractional NGS count over selection days 2 and 3 (reads of this peptide / all reads for the bait, averaged over … for the first, 0.00102 average fractional NGS count over selection days 2 and 3 (reads of this peptide / all reads for the bait, averaged over … for the second.

Compared with chain 1 D9K, chain 1 M12H is lower in screen value: 0.00156 average fractional NGS count over selection days 2 and 3 (reads of this peptide / all reads for the bait, averaged over … for the first, 0.000156 average fractional NGS count over selection days 2 and 3 (reads of this peptide / all reads for the bait, averaged over … for the second.

Going from chain 1 S8T to chain 1 G16V, the screen value falls from 0.00377 average fractional NGS count over selection days 2 and 3 (reads of this peptide / all reads for the bait, averaged over … to 0.000213 average fractional NGS count over selection days 2 and 3 (reads of this peptide / all reads for the bait, averaged over ….

Going from chain 1 G3H to chain 1 D9G, the screen value rises from 8.37e-05 average fractional NGS count over selection days 2 and 3 (reads of this peptide / all reads for the bait, averaged over … to 0.000412 average fractional NGS count over selection days 2 and 3 (reads of this peptide / all reads for the bait, averaged over ….

Compared with chain 1 E7K, chain 1 Y4W is higher in screen value: 0.00106 average fractional NGS count over selection days 2 and 3 (reads of this peptide / all reads for the bait, averaged over … for the first, 0.00197 average fractional NGS count over selection days 2 and 3 (reads of this peptide / all reads for the bait, averaged over … for the second.

Compared with chain 1 S8H, chain 1 V11L is higher in screen value: 6.7e-05 average fractional NGS count over selection days 2 and 3 (reads of this peptide / all reads for the bait, averaged over … for the first, 0.0066 average fractional NGS count over selection days 2 and 3 (reads of this peptide / all reads for the bait, averaged over … for the second.

Compared with chain 1 E15T, chain 1 S8M is higher in screen value: 0.000718 average fractional NGS count over selection days 2 and 3 (reads of this peptide / all reads for the bait, averaged over … for the first, 0.000908 average fractional NGS count over selection days 2 and 3 (reads of this peptide / all reads for the bait, averaged over … for the second.

First: chain 1 E15P
Second: chain 1 D9Q
The screen value of the first is lower: 7.42e-05 average fractional NGS count over selection days 2 and 3 (reads of this peptide / all reads for the bait, averaged over … for the first, 0.000191 average fractional NGS count over selection days 2 and 3 (reads of this peptide / all reads for the bait, averaged over … for the second.

Going from chain 1 D9N to chain 1 G16N, the screen value falls from 0.0514 average fractional NGS count over selection days 2 and 3 (reads of this peptide / all reads for the bait, averaged over … to 0.00027 average fractional NGS count over selection days 2 and 3 (reads of this peptide / all reads for the bait, averaged over ….

Compared with chain 1 E15S, chain 1 E14R is lower in screen value: 0.00159 average fractional NGS count over selection days 2 and 3 (reads of this peptide / all reads for the bait, averaged over … for the first, 0.000473 average fractional NGS count over selection days 2 and 3 (reads of this peptide / all reads for the bait, averaged over … for the second.

Compared with chain 1 E14M, chain 1 V11M is higher in screen value: 0.000122 average fractional NGS count over selection days 2 and 3 (reads of this peptide / all reads for the bait, averaged over … for the first, 0.000364 average fractional NGS count over selection days 2 and 3 (reads of this peptide / all reads for the bait, averaged over … for the second.

First: chain 1 G16D
Second: chain 1 E15N
The screen value of the first is higher: 0.00105 average fractional NGS count over selection days 2 and 3 (reads of this peptide / all reads for the bait, averaged over … for the first, 0.000739 average fractional NGS count over selection days 2 and 3 (reads of this peptide / all reads for the bait, averaged over … for the second.

Compared with chain 1 V13I, chain 1 G16Q is lower in screen value: 0.00423 average fractional NGS count over selection days 2 and 3 (reads of this peptide / all reads for the bait, averaged over … for the first, 0.000216 average fractional NGS count over selection days 2 and 3 (reads of this peptide / all reads for the bait, averaged over … for the second.

Going from chain 1 V11I to chain 1 V13T, the screen value falls from 0.195 average fractional NGS count over selection days 2 and 3 (reads of this peptide / all reads for the bait, averaged over … to 8.71e-05 average fractional NGS count over selection days 2 and 3 (reads of this peptide / all reads for the bait, averaged over ….

First: chain 1 G16L
Second: chain 1 M12Y
The screen value of the first is lower: 0.000127 average fractional NGS count over selection days 2 and 3 (reads of this peptide / all reads for the bait, averaged over … for the first, 0.000582 average fractional NGS count over selection days 2 and 3 (reads of this peptide / all reads for the bait, averaged over … for the second.

Compared with chain 1 G3R, chain 1 G16P is higher in screen value: 7.43e-05 average fractional NGS count over selection days 2 and 3 (reads of this peptide / all reads for the bait, averaged over … for the first, 9.14e-05 average fractional NGS count over selection days 2 and 3 (reads of this peptide / all reads for the bait, averaged over … for the second.

Compared with chain 1 M12L, chain 1 G3A is lower in screen value: 0.0611 average fractional NGS count over selection days 2 and 3 (reads of this peptide / all reads for the bait, averaged over … for the first, 0.000627 average fractional NGS count over selection days 2 and 3 (reads of this peptide / all reads for the bait, averaged over … for the second.

Compared with chain 1 S8Y, chain 1 M12E is lower in screen value: 0.035 average fractional NGS count over selection days 2 and 3 (reads of this peptide / all reads for the bait, averaged over … for the first, 0.000138 average fractional NGS count over selection days 2 and 3 (reads of this peptide / all reads for the bait, averaged over … for the second.

First: chain 1 M12R
Second: chain 1 G16K
The screen value of the first is higher: 0.000896 average fractional NGS count over selection days 2 and 3 (reads of this peptide / all reads for the bait, averaged over … for the first, 0.000188 average fractional NGS count over selection days 2 and 3 (reads of this peptide / all reads for the bait, averaged over … for the second.

Going from chain 1 G16T to chain 1 V13Q, the screen value rises from 0.000528 average fractional NGS count over selection days 2 and 3 (reads of this peptide / all reads for the bait, averaged over … to 0.000748 average fractional NGS count over selection days 2 and 3 (reads of this peptide / all reads for the bait, averaged over ….

First: chain 1 D9E
Second: chain 1 S8L
The screen value of the first is higher: 0.000316 average fractional NGS count over selection days 2 and 3 (reads of this peptide / all reads for the bait, averaged over … for the first, 0.000166 average fractional NGS count over selection days 2 and 3 (reads of this peptide / all reads for the bait, averaged over … for the second.

Variants of: B2
Experiment: as above

First: chain 1 E4Q
Second: chain 1 D6G
The screen value of the first is lower: 4.52e-05 average fractional NGS count over selection days 2 and 3 (reads of this peptide / all reads for the bait, averaged over … for the first, 5.78e-05 average fractional NGS count over selection days 2 and 3 (reads of this peptide / all reads for the bait, averaged over … for the second.

Going from chain 1 P16D to chain 1 Y12E, the screen value falls from 0.004 average fractional NGS count over selection days 2 and 3 (reads of this peptide / all reads for the bait, averaged over … to 0.000104 average fractional NGS count over selection days 2 and 3 (reads of this peptide / all reads for the bait, averaged over ….

Going from chain 1 P16Y to chain 1 V14L, the screen value falls from 0.000111 average fractional NGS count over selection days 2 and 3 (reads of this peptide / all reads for the bait, averaged over … to 4.25e-05 average fractional NGS count over selection days 2 and 3 (reads of this peptide / all reads for the bait, averaged over ….

Going from chain 1 P16V to chain 1 P16F, the screen value rises from 0.000126 average fractional NGS count over selection days 2 and 3 (reads of this peptide / all reads for the bait, averaged over … to 0.000936 average fractional NGS count over selection days 2 and 3 (reads of this peptide / all reads for the bait, averaged over ….

First: chain 1 H8N
Second: chain 1 P16L
The screen value of the first is lower: 0.00229 average fractional NGS count over selection days 2 and 3 (reads of this peptide / all reads for the bait, averaged over … for the first, 0.00707 average fractional NGS count over selection days 2 and 3 (reads of this peptide / all reads for the bait, averaged over … for the second.

First: chain 1 P16S
Second: chain 1 P16K
The screen value of the first is higher: 0.145 average fractional NGS count over selection days 2 and 3 (reads of this peptide / all reads for the bait, averaged over … for the first, 9.04e-05 average fractional NGS count over selection days 2 and 3 (reads of this peptide / all reads for the bait, averaged over … for the second.

Compared with chain 1 H8T, chain 1 H8I is lower in screen value: 0.000106 average fractional NGS count over selection days 2 and 3 (reads of this peptide / all reads for the bait, averaged over … for the first, 8.91e-05 average fractional NGS count over selection days 2 and 3 (reads of this peptide / all reads for the bait, averaged over … for the second.

With chain 1 L7R the screen value was 7.05e-05 average fractional NGS count over selection days 2 and 3 (reads of this peptide / all reads for the bait, averaged over ….
